Results from patent publication US20250269027A1.

Target: Mesothelin (MSLN) expressed on target cells (human) (UniProt Q13421)
Test: cell-based or functional assay

EC50 (functional sensitivity), Jurkat NFAT-luciferase, MSLN molecules/cell on HEK293 cells (molecules/cell): 80000
Substance: m912 benchmark MSLN CAR (scFv)
